From publication PMC8615521, “Mitochondria-Mediated Apoptosis of HCC Cells Triggered by Knockdown of Glutamate Dehydrogenase 1: Perspective for Its Inhibition through Quercetin and Permethylated Anigopreissin A” (Biomedicines, 2021)

Test system: O=C(O)CCC(=O)C(=O)O
Assay: purified protein
Conditions: NADH

GDH1 from bovine liver (glutamate dehydrogenase 1) (Bos taurus), sequence (chain, as listed by the source): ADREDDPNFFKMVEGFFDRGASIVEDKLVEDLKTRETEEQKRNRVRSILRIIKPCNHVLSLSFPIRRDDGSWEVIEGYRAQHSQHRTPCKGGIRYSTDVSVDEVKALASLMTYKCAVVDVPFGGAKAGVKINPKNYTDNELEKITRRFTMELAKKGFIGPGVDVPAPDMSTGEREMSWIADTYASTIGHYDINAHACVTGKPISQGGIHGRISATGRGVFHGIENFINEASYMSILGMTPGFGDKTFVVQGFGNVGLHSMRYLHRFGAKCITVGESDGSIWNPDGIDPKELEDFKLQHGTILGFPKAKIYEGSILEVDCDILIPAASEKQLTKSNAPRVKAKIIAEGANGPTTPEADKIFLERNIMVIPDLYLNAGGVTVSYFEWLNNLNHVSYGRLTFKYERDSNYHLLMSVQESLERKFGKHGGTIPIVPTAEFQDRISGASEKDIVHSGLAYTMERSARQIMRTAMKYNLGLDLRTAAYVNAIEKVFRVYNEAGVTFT

How did the Km turn out when “GDH1 from bovine liver (glutamate dehydrogenase 1) (Bos taurus)” was run?
Its Km is 840 ± 20 µM.
